US20230086210A1 (Hoffmann-La Roche, published 2023)
Blank lines part the entries; values can stand above or below the binder they belong to.

Key:
[1] = target: human 4-1BB on Jurkat-hu4-1BB-NFκB-luc2 reporter cells (human, UniProt Q07011 24-255); test: cell-based or functional assay; parameters: AUC of NFκB-activation-induced Luciferase activity curve: unit not given beside the values
[2] = target: T1, human PD-L1 on MKN45-huPD-L1 cells (human, UniProt Q9NZQ7 19-290); test: flow cytometry on MKN45-huPD-L1 cells, area under the binding curve; parameters: unit not given beside the values
T1 construct: The entry is the complete precursor; also called MKN45-PD-L1; human PD-L1-expressing MKN45 cells
T1 sequence (Q9NZQ7 19-290 limits assumed): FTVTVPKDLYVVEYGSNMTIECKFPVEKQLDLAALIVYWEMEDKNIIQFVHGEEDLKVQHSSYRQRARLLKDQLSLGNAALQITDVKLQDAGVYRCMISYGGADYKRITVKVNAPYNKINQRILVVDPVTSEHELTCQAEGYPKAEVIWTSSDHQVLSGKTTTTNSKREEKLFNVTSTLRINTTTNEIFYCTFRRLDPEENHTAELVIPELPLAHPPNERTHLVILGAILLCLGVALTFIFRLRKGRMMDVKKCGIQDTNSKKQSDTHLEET

[3] = target: T1, human PD-L1 on MKN45-huPD-L1 cells; test: flow cytometry on MKN45-huPD-L1 cells, PE-conjugated goat F(ab')2 anti-human Fcγ, geo mean of fluorescence, baseline corrected
Protocol: All values are baseline corrected by subtracting the baseline values of the blank control (e.g. no primary only secondary detection antibody).
Cells were incubated for 30 min at 4° C. and then washed twice with 80 μL/well DPBS. […] Cells were washed twice with 80 μL/well DPBS and then fixed in 30 μL/well DPBS containing 1% formaldehyde for at least 15 minutes.

Sequence of human 4-1BB on Jurkat-hu4-1BB-NFκB-luc2 reporter cells (Q07011 24-255): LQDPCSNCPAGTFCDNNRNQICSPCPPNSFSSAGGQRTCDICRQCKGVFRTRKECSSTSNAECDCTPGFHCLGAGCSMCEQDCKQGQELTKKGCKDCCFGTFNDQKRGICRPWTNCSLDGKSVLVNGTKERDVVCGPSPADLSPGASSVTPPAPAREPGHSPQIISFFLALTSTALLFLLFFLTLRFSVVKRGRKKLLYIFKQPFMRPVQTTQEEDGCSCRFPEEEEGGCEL

AUC of NFκB-activation-induced Luciferase activity curve [1]: 135000 | EC50 of NFκB-activation-induced Luciferase activity curve [1]: 0.037 nM
B1: 4-1BB×PD-L1 2+1 (bispecific agonistic 4-1BB×PD-L1 antibody with bivalent binding to 4-1BB (clone 20H4.9) and monovalent binding to PD-L1, Head to Head 2+1 … (bispecific antibody)
heavy 1: QVQLQQWGAGLLKPSETLSLTCAVYGGSFSGYYWSWIRQSPEKGLEWIGEINHGGYVTYNPSLESRVTISVDTSKNQFSLKLSSVTAADTAVYYCARDYGPGNYDWYFDLWGRGTLVTVSSASTKGPSVFPLAPSSKSTSGGTAALGCLVEDYFPEPVTVSWNSGALTSGVHTFPAVLQSSGLYSLSSVVTVPSSSLGTQTYICNVNHKPSNTKVDEKVEPKSCDKTHTCPPCPAPEAAGGPSVFLFPPKPKDTLMISRTPEVTCVVVDVSHEDPEVKFNWYVDGVEVHNAKTKPREEQYNSTYRVVSVLTVLHQDWLNGKEYKCKVSNKALGAPIEKTISKAKGQPREPQVCTLPPSRDELTKNQVSLSCAVKGFYPSDIAVEWESNGQPENNYKTTPPVLDSDGSFFLVSKLTVDKSRWQQGNVFSCSVMHEALHNHYTQKSLSLSP
heavy 2: not shown
light 1: not shown
light 2: not shown

AUC of NFκB-activation-induced Luciferase activity curve [1]: 122000 | EC50 of NFκB-activation-induced Luciferase activity curve [1]: 0.097 nM
B2: 4-1BB×PD-L1 1+1 (bispecific antibody with monovalent binding to 4-1BB (clone 20H4.9) and monovalent binding to PD-L1) (bispecific antibody)
heavy 1: B1 heavy 1
heavy 2: not shown
light 1: not shown
light 2: not shown

AUC of NFκB-activation-induced Luciferase activity curve [1]: 8870 | EC50 of NFκB-activation-induced Luciferase activity curve [1]: 0.32 nM | AUC [2]: 432 | binding result [3]: no binding (tested: 100 nM)
B3: 4-1BB huIgG1 P329G LALA (anti-human 4-1BB clone 20H4.9 as huIgG1 P329G LALA) (antibody, V domains shown)
VH: QVQLQQWGAGLLKPSETLSLTCAVYGGSFSGYYWSWIRQSPEKGLEWIGEINHGGYVTYNPSLESRVTISVDTSKNQFSLKLSSVTAADTAVYYCARDYGPGNYDWYFDLWGRGTLVTVSS
VL: EIVLTQSPATLSLSPGERATLSCRASQSVSSYLAWYQQKPGQAPRLLIYDASNRATGIPARFSGSGSGTDFTLTISSLEPEDFAVYYCQQRSNWPPALTFGGGTKVEIK
notes: Human IgG1 with P329G L234A L235A
